Here are results for 16 molecules from US20140154255A1 (AbbVie / Abbott, published 2014).

Changes are numbered by the printed parent chain.

For assay [1], the target named is T1, human VEGF-A residues 27-191 of Accession #AAV38412 (human, UniProt P15692 27-191).
T1 construct: range 27-191
The assay can be described thus: BIAcore SPR. On the procedure: (§1) The binding kinetics and affinity of the antibodies for VEGF (human VEGF-A residues 27-191 of Accession #AAV38412) was determined by using a BIAcore T200 surface plasmon resonance system (BIAcore, GE Healthcare, Piscataway, N.J.). Coupling running buffer was HBS-EP+ running buffer (10 mM HEPES, 150 mM sodium chloride, 3 mM EDTA 0.05% P-20, pH 7.4); assay running buffer was HBS-EP+ with 300 mM sodium chloride and 0.1 mg/mL BSA (Sigma A7906). Polyclonal goat anti-human Fc (Thermo Scientific prod#31125) was first immobilized to the biosensor surface in 10 mM sodium acetate, pH 4.5 using standard BIAcore amine coupling reagents (N-ethyl-N′-dimethylamino-propylcarbodiimide, EDC; N-hydroxysuccinimide, NHS; and ethanolamine HCl, pH 8.5). For binding kinetics assay a series of cycles were performed, each cycle consisted of 1) mAb capture, 2) Ag or buffer injection, 3) dissociation phase and 4) regeneration. Briefly, anti-VEGF antibodies were captured on parallel surfaces at a low flow rate of 10 μL/min. Capture levels were kept low to minimize avidity due to the dimeric nature of VEGF. No capture of the antibody was made on the reference surface to serve for primary referencing and as a negative control. Subsequently, VEGF or buffer only was injected to all flow cells at a flow rate of 80 μL/min for three minutes to monitor association followed by a 20-minute flow of assay rinning buffer at a flow rate of 80 μL/min to monitor dissociation. […] At the end of each cycle the surface was regenerated with 10 mM glycine, pH 1.5 at a flow rate of 60 μL/min in pulses of 60 and 10 sec. Binding data were fit to the 1:1 Langmuir model with mass transport term included using Biacore T200 Evaluation Software to determine the binding constants.

The target of assay [2] is T2, unlabeled human VEGF (ELISA coat) (human, UniProt P15692-4 27-191, limits assumed). Description: ELISA overnight, EC50 WT/EC50 mutant. On the procedure:
(§2) To detect identified variants binding to antigen, ELISA plates (Nunc-Immuno MaxiSorp plates, Nalge Nunc, Rochester, N.Y.) were coated overnight at 4° C. with unlabeled human VEGF at 1 μg/mL in 0.2 M sodium carbonate-bicarbonate buffer (pH 9.4, Pierce, Rockford, Ill.). The plates were then blocked with SuperBlock Blocking Buffer (Pierce, Rockford, Ill.) for 30 min and washed with Washing Buffer (PBS containing 0.1% Tween 20). All the washing steps were performed for three times. […] The plates were washed and 100 μL of goat anti-human kappa HRP-conjugated antibody (Southern Biotech, Birmingham, Ala.) diluted at 1:1000 in ELISA buffer was added to each well. After 30 minutes of incubation, plates were washed and bound antibodies were detected by addition of TMB 1 Component HRP Microwell substrate (BioFx #TMBW-1000-01). The reaction was terminated by addition of 100 μL/well of 650 nM Stop Reagent for TMB Microwell substrate and the absorbance was measured at 650 nm using a VERSAmax microplate reader (Molecular Devices, Sunnyvale, Calif.). Data were fitted using nonlinear regression with the software […]

In assay [3] the target is T1, human VEGF-A residues 27-191 of …. Description: BIAcore SPR, KD WT/KD mutant. On the procedure:
as §1

The target of assay [4] is T2, unlabeled human VEGF (ELISA coat). Description: ELISA 1 hr, EC50 WT/EC50 mutant. On the procedure: as §2
(In general: An ELISA detects its analyte on a solid surface through an enzyme-linked reagent.)

T2 sequence (P15692 other isoform, or with tags, fused parts or gaps limits assumed): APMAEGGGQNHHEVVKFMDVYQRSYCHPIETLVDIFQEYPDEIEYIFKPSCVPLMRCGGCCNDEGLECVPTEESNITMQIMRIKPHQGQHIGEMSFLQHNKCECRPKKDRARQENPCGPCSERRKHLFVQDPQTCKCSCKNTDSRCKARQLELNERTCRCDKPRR
T1 sequence (P15692 other isoform, or with tags, fused parts or gaps limits assumed): as above

B1: T30 K (anti-VEGF IgG) (antibody, V domains shown)
VH: EVQLVESGGGLVQPGGSLRLSCAASGYTFKNYGMNWVRQAPGKGLEWVGWINTYTGEPTYAADFKRRFTFSLDTSKSTAYLQMNSLRAEDTAVYYCAKYPHYYGSSHWYFDVWGQGTLVTVSS
VL: DIQMTQSPSSLSASVGDRVTITCSASQDISNYLNWYQQKPGKAPKVLIYFTSSLHSGVPSRFSGSGSGTDFTLTISSLQPEDFATYYCQQYSTVPWTFGQGTKVEIK
notes: copies: 2 + 2
The Kd is the concentration at which binding is half-saturated. A low value points to a tighter complex. For orientation: koff means the rate constant with which the complex falls apart. The low end stands for slow dissociation, the high end for fast dissociation. For orientation: kon means the second-order rate constant of association. A low value points to slower complex formation. On to B1, for which, in assay [1], binding was characterised by a dissociation constant (Kd) of 0.92 nM, the koff amounted to 8.53e-05 s⁻¹ and the kon worked out at 92800 M⁻¹ s⁻¹. The molecule further returned an ELISA o/n binding in assay [2] of 3.1 fold. The affinity improvement in assay [3] came to 0.5 fold. The “ELISA 1hr binding” value in assay [4] amounted to 2.5 fold.

B2: T28 R (anti-VEGF IgG) (antibody, V domains shown)
VH: B1 VH with T28R, K30T
VL: B1 VL
notes: copies: 2 + 2
In assay [1], B2 gave a dissociation constant Kd of 0.675 nM, a koff of 6.44e-05 s⁻¹ and a kon of 95400 M⁻¹ s⁻¹. The molecule also returned an ELISA o/n binding in assay [2] of 1.8 fold. The same molecule returned an affinity improvement in assay [3] of 0.6 fold. Moreover, in assay [4], the “ELISA 1hr binding” value was 1.4 fold.

B3: H97 A (anti-VEGF IgG) (antibody, V domains shown)
VH: B1 VH with K30T, H101A
VL: B1 VL
notes: copies: 2 + 2
In assay [1], B3 had a Kd of 2.2 nM, an off-rate (koff) of 0.000451 s⁻¹ and a kon of 205000 M⁻¹ s⁻¹. The same molecule displayed an ELISA o/n binding in assay [2] of 3.4 fold. The molecule further yielded an affinity improvement in assay [3] of 0.2 fold. Further, the “ELISA 1hr binding” value in assay [4] stood at 4 fold.

B4: T28 G (anti-VEGF IgG) (antibody, V domains shown)
VH: B1 VH with T28G, K30T
VL: B1 VL
notes: copies: 2 + 2
In assay [1], B4 came in with a Kd of 0.374 nM, a koff of 4.97e-05 s⁻¹ and a kon of 133000 M⁻¹ s⁻¹. In assay [2], this molecule showed an ELISA o/n binding of 3.9 fold. In addition, the affinity improvement in assay [3] was found to be 1.3 fold. Also, the “ELISA 1hr binding” value in assay [4] came out at 5.4 fold.

B5: N31 W (anti-VEGF IgG) (antibody, V domains shown)
VH: B1 VH with K30T, N31W
VL: B1 VL
notes: copies: 2 + 2
For B5, in assay [1], the affinity, expressed as Kd, was 0.164 nM; the dissociation rate constant (koff) is 3.42e-05 s⁻¹; the kon came out at 209000 M⁻¹ s⁻¹. Moreover, in assay [2], the ELISA o/n binding came out at 1.3 fold. Moreover, the affinity improvement in assay [3] was 3.1 fold. The “ELISA 1hr binding” value in assay [4] is 2.1 fold.

B6: N31 Y (anti-VEGF IgG) (antibody, V domains shown)
VH: B1 VH with K30T, N31Y
VL: B1 VL
notes: copies: 2 + 2
In assay [1], B6 yielded a Kd of 0.077 nM, a koff of 1.77e-05 s⁻¹ and an on-rate (kon) of 230000 M⁻¹ s⁻¹. Further, in assay [2], the ELISA o/n binding amounted to 1.5 fold. This molecule also gave an affinity improvement in assay [3] of 6.6 fold. Further, in assay [4], the “ELISA 1hr binding” value was found to be 3 fold.

B7: T30 N (anti-VEGF IgG) (antibody, V domains shown)
VH: B1 VH with K30N
VL: B1 VL
notes: copies: 2 + 2
In assay [1], B7 registered a dissociation constant (Kd) of 0.303 nM, a koff of 5.14e-05 s⁻¹ and an association rate constant (kon) of 170000 M⁻¹ s⁻¹. The molecule also showed an ELISA o/n binding in assay [2] of 4 fold. In assay [3], the affinity improvement was 1.7 fold. The “ELISA 1hr binding” value in assay [4] amounted to 2.4 fold.

B8: N31 L (anti-VEGF IgG) (antibody, V domains shown)
VH: B1 VH with K30T, N31L
VL: B1 VL
notes: copies: 2 + 2
In assay [1], B8 displayed an equilibrium dissociation constant (Kd) of 0.278 nM, a dissociation rate constant (koff) of 6.05e-05 s⁻¹ and a kon of 218000 M⁻¹ s⁻¹. The molecule further yielded an ELISA o/n binding in assay [2] of 1.1 fold. In assay [3], this molecule had an affinity improvement of 1.8 fold. For the same molecule, the “ELISA 1hr binding” value in assay [4] is 1.1 fold.

B9: T30 W (anti-VEGF IgG) (antibody, V domains shown)
VH: B1 VH with K30W
VL: B1 VL
notes: copies: 2 + 2
In assay [1], B9 gave an equilibrium dissociation constant (Kd) of 0.309 nM, a koff of 5.74e-05 s⁻¹ and a kon of 186000 M⁻¹ s⁻¹. The same molecule returned an ELISA o/n binding in assay [2] of 4.5 fold. In assay [3], this molecule registered an affinity improvement of 1.6 fold. For the same molecule, the “ELISA 1hr binding” value in assay [4] was 2.9 fold.

B10: T28 Y (anti-VEGF IgG) (antibody, V domains shown)
VH: B1 VH with T28Y, K30T
VL: B1 VL
notes: copies: 2 + 2
In assay [1], B10 displayed a Kd of 0.52 nM, a dissociation rate constant (koff) of 6.32e-05 s⁻¹ and an association rate constant (kon) of 122000 M⁻¹ s⁻¹. The ELISA o/n binding in assay [2] turned out to be 3.4 fold. Besides, the affinity improvement in assay [3] was 1 fold. Besides, the “ELISA 1hr binding” value in assay [4] is 5.2 fold.

B11: N31 H (anti-VEGF IgG) (antibody, V domains shown)
VH: B1 VH with K30T, N31H
VL: B1 VL
notes: copies: 2 + 2
In the case of B11, in assay [1], the Kd turned out to be 0.172 nM, the koff was found to be 3.17e-05 s⁻¹ and the on-rate (kon) amounted to 184000 M⁻¹ s⁻¹. This molecule also had an ELISA o/n binding in assay [2] of 1.9 fold. This molecule also had an affinity improvement in assay [3] of 2.5 fold. In assay [4], the “ELISA 1hr binding” value was 2.2 fold.

B12: T30 R (anti-VEGF IgG) (antibody, V domains shown)
VH: B1 VH with K30R
VL: B1 VL
notes: copies: 2 + 2
In assay [1], B12 showed a Kd of 0.644 nM, a koff of 6.76e-05 s⁻¹ and an on-rate (kon) of 105000 M⁻¹ s⁻¹. The same molecule showed an ELISA o/n binding in assay [2] of 3.2 fold. The molecule also displayed an affinity improvement in assay [3] of 1.3 fold. Further, in assay [4], the “ELISA 1hr binding” value came out at 2.9 fold.

B13: S100a Q (anti-VEGF IgG) (antibody, V domains shown)
VH: B1 VH with K30T, S105Q
VL: B1 VL
notes: copies: 2 + 2
In the case of B13, in assay [1], the Kd came to 0.451 nM, the koff is 6.04e-05 s⁻¹ and the association rate constant (kon) stood at 134000 M⁻¹ s⁻¹. In assay [2], the ELISA o/n binding worked out at 3.6 fold. In assay [3], this molecule gave an affinity improvement of 1.1 fold. The “ELISA 1hr binding” value in assay [4] is 3.7 fold.

B14: S100a A (anti-VEGF IgG) (antibody, V domains shown)
VH: B1 VH with K30T, S105A
VL: B1 VL
notes: copies: 2 + 2
In the case of B14, in assay [1], the Kd was 0.337 nM, the koff was 7.68e-05 s⁻¹ and the association rate constant (kon) was 228000 M⁻¹ s⁻¹. The ELISA o/n binding in assay [2] came to 2.1 fold. The affinity improvement in assay [3] is 1.3 fold. In addition, in assay [4], the “ELISA 1hr binding” value turned out to be 2.2 fold.

B15: S100a G (anti-VEGF IgG) (antibody, V domains shown)
VH: B1 VH with K30T, S105G
VL: B1 VL
notes: copies: 2 + 2
For the molecule B15, in assay [1], the affinity, expressed as Kd, was 0.602 nM; the koff is 0.000133 s⁻¹; the kon came out at 221000 M⁻¹ s⁻¹. In assay [2], this molecule returned an ELISA o/n binding of 3.7 fold. In assay [3], this molecule had an affinity improvement of 0.8 fold. The “ELISA 1hr binding” value in assay [4] is 3.7 fold.

B16: S100a T (anti-VEGF IgG) (antibody, V domains shown)
VH: B1 VH with K30T, S105T
VL: B1 VL
notes: copies: 2 + 2
In assay [1], B16 gave an equilibrium dissociation constant (Kd) of 0.197 nM, an off-rate (koff) of 4.15e-05 s⁻¹ and an association rate constant (kon) of 211000 M⁻¹ s⁻¹. In addition, the ELISA o/n binding in assay [2] is 2.7 fold. For the same molecule, the affinity improvement in assay [3] was found to be 2.2 fold. Besides, the “ELISA 1hr binding” value in assay [4] was found to be 2.3 fold.
